# In patent US20230331827A1, “POTASSIUM CHANNEL INHIBITORS” (priority 2017, published 2023):
# B1: KB_A12: EETI-II knottin fused into VL CDR2, D1A12 VH; parental KnotBody, isotype control (antibody, V domains shown)
# VH: EVQLVESGGGLVRPGGSLRLSCAASGFTFSSYAMSWVRQAPGKGLEWVSAISGSGGSTYYADSVKGRFTISRDNTKNSLYLQMTSLRADDTAFYYCVKDFGPGYGTGWFDYWGPGTLVTVSS
# VL: QSVLTQPPSVSEAPRQRVTITCSGSSSNIGNNAVNWYQQLPGKAPKLLIYAAGRCPRILMRCKQDSDCLAGCVCGPNGFCGANSGVSDRFSAAKSGTSASLAINGLRSEDEADYYCAAWDDSLNGYVFGTGTKLTVLGQP
# System: in vitro rat BBB model
# Assay: In vitro rat BBB model transcytosis, sandwich ELISA of Fab in lower chamber
# Assay type: in vitro ADME
# Details: test Fabs as oligoclonal mixes of 3 per well at 2 µM, controls 1 µM, value is per well
# Procedure: In order to assess the ability of these KnotBodies to cross the BBB, a ready to use in vitro rat BBB model system (Pharmacocell, Cat. No. RBT-24H) was used. In this model system rat brain endothelial cells were co-cultured with pericytes and astrocytes to mimic the in vivo BBB anatomy (Nakagawa, S. et al. (2009) Neurochem. Int. 54, 253-263). The in vitro rat BBB kit was cultured according to manufacturer’s instructions and transendothelial electrical resistance (TEER) was measured prior to testing of KnotBodies to verify the integrity of the barrier. […] 21 KnotBody Fabs were tested for their ability to cross the in vitro BBB model system. […] The parent KnotBody KB_A12 was used as a negative control. Both positive and negative controls were expressed and purified in the Fab format as described above. […] The concentration of transcytosed Fabs in the lower chamber (referred as brain side) was determined using a sandwich ELISA. In this ELISA, Fabs were captured using an anti-CH1 antibody (provided by Hybridoma Reagent Laboratories) and detected using rabbit anti-human IgG Kappa light chain antibody (Abcam, Cat. No. ab195576) or anti-human IgG Lambda light chain antibody (Abcam, Cat. No. ab124719) followed by europium conjugated anti-rabbit antibody (Perkin Elmer, Cat. No. AD0105). […]
molecule,measurement,value
B1,% transcytosis after 6h,0.1%
